In PMC3592470 (Nucleic Acids Research, 2012):
Substitutions are numbered along the chain they refer to. Numbers in names are those of the source. Blank lines part the entries; values can stand above or below the binder they belong to.

Legend:
[1] = biological target: T1, BcgI B subunit (UniProt Q07606 1-341); experiment: AUC
T1 sequence (looked up): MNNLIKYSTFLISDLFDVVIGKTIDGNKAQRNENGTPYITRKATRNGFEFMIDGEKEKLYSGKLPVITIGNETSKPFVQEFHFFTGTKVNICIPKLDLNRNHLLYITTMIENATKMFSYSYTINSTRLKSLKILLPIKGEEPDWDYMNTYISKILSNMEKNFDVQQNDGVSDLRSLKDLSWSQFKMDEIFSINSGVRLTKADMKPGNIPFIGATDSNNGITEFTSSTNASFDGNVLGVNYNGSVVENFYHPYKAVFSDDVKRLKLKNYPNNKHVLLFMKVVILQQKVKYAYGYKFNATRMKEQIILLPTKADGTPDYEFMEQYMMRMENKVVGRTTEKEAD

[2] = biological target: T1, BcgI B subunit; experiment: native MS

stoichiometry N [1]: 2 A per B
B1: BcgI A subunit, wild type (as a subunit of WT BcgI) (enzyme, UniProt Q07605 1-637, looked up)
chain: MVNEKTSTDQLVRRFIEDLGVTYEEQGSSNIQIKQALRSASKSKSQSGVGKPEFIFFSGNHLIIVEDKLAIDKLEYKNNDGIIDTEFPFRRDYAVNGAVHYARHIIEKTNSYKEVIAIGIAGDGLHYQIHPYFVSETELKKLPEMKSLEDISPENIEEFYKVAVLGELPKEERELREVNKIAADMHEDLRNYGQLEGEKKATVVSAILLALEEPTFSLNQLIGSDRVGGTDGEIIFNAVRVYLENAGIVPYAKVGEMLDQFIFIQRDVTLNTVNSNLEMTPLKYFATTLEAEIMDKIKSNTDFDILGNFYGEFVKYGGNDGNPLGIVLTPRHITSLMAELIGINKSDFVLDPACGTGAFLISAMNRMLGQAENDDERRDIKQNRLYGIEIQQKLFTIATTNMILRGDGKSNLIRDNCLTFDNTIMNGYGINKILMNPPYSQAKNDQTQHLSELSFIQQALEMLVVGGKLCAIVPQSTMVGKNRHDKARKKQILKQHTLETVITLNKDTFHGVGVNPCIVIFKAGIKHPENKRVSFVNFEDDGHVVRKHVGLVGDGTEKGKREHLLAVLAGDEDDGTDLIVKTAIKDTDEWLHSFYYFNDGIPSEDDFYKTVANYLTFQFDMTANGKGYLFEGVEENE

stoichiometry N [2]: 2 A per B
B2: BcgI A subunit, E53A mutant (as a subunit of the BcgI E53A protein) (enzyme, UniProt Q07605 1-637, looked up)
chain: B1 chain with E53A
